Reference: the RNAGym collection of RNA variant scans (doi:10.7554/elife.90254)

B1: LINE1-full (parent)
chain: UACGUAGGUGGUUUUCCCCUGAUAGUGCUAAGGGGGCCUGGAAGUUUGGACUGGGCAGAGCUCAACACAGCGUGGCAAAGUGGCUGUGGCUAGACUGCCUCUCUGGAUUCCUCGUCACUCAGCAGGGCAUCUCUGAGAGAAAUGCC

Variants of: B1
Assay: self-cleavage, relative activity (ratio to wild type); higher = more cleavage; in vitro, sequencing; the parent is a self-cleaving ribozyme

In order of rising self-cleavage:
1. G88U G126A  0
2. U85G U104C  0
3. G58U U62C  0
4. A64G U87G  0
5. A6U G114A  0
6. U13A A69U  0.01
7. C38U C61G  0.02
8. C19G U62A  0.03
9. G89A U143C  0.03
10. A57U C61U  0.03
11. C63A U87A  0.04
12. A64G G88C  0.04
13. A65U G97A  0.04
14. A65G A140G  0.04
15. G88A A121U  0.04
16. G58U A64U  0.05
17. A69U  0.06
18. A77U U96A  0.06
19. A42G U62A  0.06
20. G88A A124G  0.06
21. C56A A141G  0.07
22. U96G G137A  0.08
23. U45A C71U  0.08
24. U12C A67C  0.09
25. G32U A65G  0.12
26. A57G C128A  0.12
27. A30G U62C  0.13
28. G53U G70C  0.14
29. C19U A94U  0.14
30. G97C U102C  0.14
31. C95U A117G  0.14
32. U52G U85C  0.15
33. U46C A59G  0.16
34. C68U U134C  0.17
35. G83A G97C  0.18
36. A57G C98U  0.19
37. U85C A117U  0.19
38. G53C A65U  0.2
39. U12C A57U  0.22
40. U87C A140U  0.22
41. A64G A77U  0.23
42. U85G U130C  0.24
43. U5C A65U  0.26
44. U9A A94G  0.27
45. C71U A124G  0.28
46. G7A C71A  0.29
47. A50C A65U  0.31
48. A31U A129U  0.33
49. U39C G54U  0.39
50. U26A A67G  0.4
51. U52G G70A  0.42
52. G82U A92U  0.43
53. A78U A94G  0.46
54. U14C A64U  0.46
55. C3A U109C  0.53
56. U130C U134G  0.54
57. U45C G127A  0.55
58. A129C A138U  0.57
59. A6G U15A  0.58
60. U47C A59U  0.6
61. U12G A92U  0.62
62. A6C U100C  0.66
63. G36A G40U  0.66
64. U45G U109C  0.66
65. A24C G114A  0.68
66. A31G U81C  0.69
67. A2G G36A  0.7
68. C3G U81C  0.75
69. G35U U100A  0.78
70. A22G A124U  0.8
71. A24U G35A  0.8
72. A24U C37G  0.82
73. G34C C37U  0.84
74. G127A A140G  0.9
75. G75A U112A  0.91
76. U9A U45C  0.91
77. G4A C17A  0.92
78. A43G C111U  0.93
79. A42G U134A  0.93
80. G75C U119A  0.95
81. A42G U119A  0.95
82. U9A A117G  0.96
83. A22G A124G  0.96
84. A121G A124G  0.97
85. C37U U119A  0.99
86. A31U A121G  1
87. A50G A79G  1
88. U52C U104A  1.02
89. A24U C123U  1.02
90. G48A A140G  1.02
91. U5C A117U  1.03
92. A57G G106A  1.04
93. G21A C118U  1.07
94. U39C U119A  1.08
95. G135U A140G  1.08
96. C110A G139C  1.08
97. G21U  1.1
98. A92G U108C  1.11
99. U14G C38G  1.12
100. U5A U14A  1.15
101. U20C U104A  1.17
102. U81C C128U  1.19
103. C99A U108C  1.2
104. U39C A79G  1.21
105. U109A A140U  1.22
106. U104A U119A  1.23
107. U12G U143C  1.23
108. U52A U130G  1.24
109. G53U  1.25
110. A42G C145U  1.26
111. C71U G144A  1.27
112. U14G A107G  1.28
113. U13C U132A  1.3
114. U45A A140G  1.32
115. G35U A43U  1.33
116. A117G C145U  1.33
117. U52A G114C  1.34
118. G74A A77G  1.35
119. A22U A117U  1.36
120. U100C U104A  1.37
121. A24C C51U  1.37
122. C111U  1.38
123. G33U U115A  1.38
124. U102C A141G  1.39
125. G127A G139C  1.41
126. U1C C116A  1.42
127. A43U G135U  1.43
128. U132C G144U  1.43
129. A136G C145U  1.45
130. C28G U143A  1.45
131. U20C C118G  1.45
132. C120U G127A  1.48
133. U119A A142G  1.48
134. A77G U109C  1.51
135. C131U A141G  1.51
136. U46C U134C  1.53
137. U12C A107C  1.53
138. C16U A79U  1.54
139. U46C U130C  1.54
140. A50G A141U  1.54
141. G8A U20C  1.59
142. A107U A121G  1.62
143. U9C A117U  1.62
144. G33U U104C  1.62
145. A107G A129G  1.63
146. A43G G105U  1.65
147. A43G U104C  1.68
148. U100A U104C  1.68
149. A24G U108C  1.68
150. A77U U109A  1.68
151. U23C U45C  1.7
152. A78C A141G  1.74
153. U119C A138G  1.84
154. G114U A141G  1.86
155. U100C A136G  1.91
156. U112G A117U  1.92
157. U45C U132A  1.96
158. G44U U130A  1.99
159. A117G G127A  2
160. U73G U143C  2.02
161. A107C A117U  2.03
162. U104C U108C  2.07
163. A77G A142G  2.14
164. C76U C113A  2.15
165. G36A A124C  2.16
166. U46A A79U  2.16
167. G7A U100C  2.45
